Patent publication US20080207488A1 (published 2008)
Each block holds one binder with its values, some of them ahead of it. Ends that are not written are not given here.

B1: tissue-type plasminogen activator (tPA) (enzyme, human, UniProt P00750 36-562, looked up)
chain: SYQVICRDEKTQMIYQQHQSWLRPVLRSNRVEYCWCNSGRAQCHSVPVKSCSEPRCFNGGTCQQALYFSDFVCQCPEGFAGKCCEIDTRATCYEDQGISYRGTWSTAESGAECTNWNSSALAQKPYSGRRPDAIRLGLGNHNYCRNPDRDSKPWCYVFKAGKYSSEFCSTPACSEGNSDCYFGNGSAYRGTHSLTESGASCLPWNSMILIGKVYTAQNPSAQALGLGKHNYCRNPDGDAKPWCHVLKNRRLTWEYCDVPSCSTCGLRQYSQPQFRIKGGLFADIASHPWQAAIFAKHRRSPGERFLCGGILISSCWILSAAHCFQERFPPHHLTVILGRTYRVVPGEEEQKFEVEKYIVHKEFDDDTYDNDIALLQLKSDSSRCAQESSVVRTVCLPPADLQLPDWTECELSGYGKHEALSPFYSERLKEAHVRLYPSSRCTSQHLLNRTVTDNMLCAGDTRSGGPQANLHDACQGDSGGPLVCLNDGRMTLVGIISWGLGCGQKDVPGVYTKVTNYLDWIRDNMRP
notes: Full-length recombinant tPA; also called Actilyse; Alteplase
B2: abciximab (ReoPro) (Fab, V domains shown)
VH: EVQLQQSGTVLARPGASVKMSCEASGYTFTNYWMHWVKQRPGQGLEWIGAIYPGNSDTSYIQKFKGKAKLTAVTSTTSVYMELSSLTNEDSAVYYCTLYDGYYVFAYWGQGTLVTVSA
VL: EIVLTQSPVTLSVTPGDSVSLSCRASRDISNNLHWFQQTSHESPRLLIKYASQSMSGIPSRFSGSGSGTDFTLSINSVETEDFGMYFCQQTNSWPYTFGGGTKLEIK
B4: endostatin (EntreMed) (other, UniProt P39060 1572-1754, looked up)
chain: HSHRDFQPVLHLVALNSPLSGGMRGIRGADFQCFQQARAVGLAGTFRAFLSSRLQDLYSIVRRADRAAVPIVNLKDELLFPSWEALFSGSEGPLKPGARIFSFDGKDVLRHPTWPQKSVWHGSDPNGRRLTESYCETWRTEAPSATGQASSLLGGRLLGQSAASCHHAYIVLCIENSFMTASK
notes: also called protein therapeutic endostatin
B6: recombinant human β2-glycoprotein I (other, UniProt P02749 20-345, looked up)
chain: GRTCPKPDDLPFSTVVPLKTFYEPGEEITYSCKPGYVSRGGMRKFICPLTGLWPINTLKCTPRVCPFAGILENGAVRYTTFEYPNTISFSCNTGFYLNGADSAKCTEEGKWSPELPVCAPIICPPPSIPTFATLRVYKPSAGNNSLYRDTAVFECLPQHAMFGNDTITCTTHGNWTKLPECREVKCPFPSRPDNGFVNYPAKPTLYYKDKATFGCHDGYSLDGPEEIECTKLGNWSAMPSCKASCKVPVKKATVVYQGERVKIQEKFKNGMLHGDKVSFFCKNKEKKCSYTEDAQCIDGTIEVPKCFKEHSSLAFWKTDASDVKPC
notes: also called recombinant β2GPI; rec. β2GPI

Legend:
[1] = biological target: B2; assay: ELISA, therapeutic coated, tPA concentration series, one-site binding fit
Experimental: (§1) Nunc Immobilizer plates (Nalge Nunc, #436013, Rochester, N.Y., USA) were coated with 50 μL containing 5 μg/mL of sample protein (unless indicated otherwise) in 100 mM NaHCO₃, pH 9.6, 0.05% m/v NaN₃ for 1 hour at room temperature. Plates were washed twice with Tris buffered saline pH 7.2 containing 0.1% Tween20 (TBST) and blocked with PBS containing 1% Tween20 for 1 hour at room temperature. […] Plates were washed five times with TBST and incubated with peroxidase labeled anti-mouse immunoglobulins (RAMPO; DAKOCytomation, Glostrup, Denmark) diluted 1:3000 in PBST for 30 minutes at room temperature. Plates were washed five times with PBS 0.1% Tween20, and stained with 100 μL/well of tetramethyl-benzidine (TMB) substrate (Biosource Europe, Nivelles, Belgium). The reaction was terminated with 50 μL/well of 2 M H₂SO₄ and substrate conversion was read at 450 nm on a Spectramax340 microplate reader. Curves were fitted with a one-site binding model (GraphPad Prism version 4.02 for Windows, Graphpad Software, CA, USA) from which Kd and Bmax were determined.

[2] = biological target: T1, rapid acting human insulin analogue (NovoRapid Flexpen) (human, UniProt P01308 90-110; P01308 25-54); assay: as above
T1 construct: mature; also called Insulin Aspart; Novo Rapid insulin
Experimental: as §1

[3] = biological target: T2, recombinant human Zn2+-chelated insulin (Monotard) (human, UniProt P01308 90-110; P01308 25-54); assay: as above
T2 construct: mature; Zinc suspension; also called zinc-insulin; zinc-chelated insulin
Experimental: as §1

[4] = biological target: T3, human albumin (Cealb) (human, UniProt P02768 25-609); assay: as above
T3 construct: mature
Experimental: as §1

[5] = biological target: T4, advanced glycation end-product modified bovine serum albumin (albumin-AGE) (bovine, UniProt P02769 25-607, glycated (advanced glycation end-products; 1 M glucose-6-phosphate, 37 °C, up to 23 weeks); sites not stated); assay: SPR (Biacore), immobilized tPA
T4 construct: Misfolded, cross-β structure containing preparation; also called BSA-AGE; glycated BSA
Experimental: EDC, NHS and ethanolamine hydrochloride were obtained from Biacore. […] The flow rate was 10 μl min.⁻¹, the injection time was 120″. The running buffer during immobilization was 10 mM HEPES pH 7.4, 140 mM NaCl. Buffers were filtrated on a 0.22 μm filter (white GSWP, 47 mm, Millipore) and degassed at room temperature. For subsequent binding experiments, the running buffer was 10 mM HEPES pH 7.4, 140 mM NaCl, 1.5 mM CaCl₂, 10 mM εACA, 0.005% Tween-20. […] After each injection of protein, the chip was regenerated with 0.1 M H₃PO₄ pH 1.0.

[6] = biological target: B1; assay: ELISA, therapeutic coated, tPA concentration series, one-site binding fit
Experimental: as §1

[7] = biological target: B1; assay: cell-based or functional assay
[8] = biological target: B6; assay: SPR (Biacore), tPA F immobilized on CM5 chip
Experimental: (§2) Now, the running buffer was 10 mM HEPES pH 7.4, 140 mM NaCl, 1.5 mM CaCl₂, 10 mM εACA, 0.05% Tween-20. Regeneration buffer was running buffer supplemented with 1 M NaCl.

[9] = biological target: B4; assay: SPR (Biacore), tPA F immobilized on CM5 chip
Experimental: as §2

[10] = biological target: T5, fibronectin F4-5 domains with carboxy-terminal His6-tag, expressed in S. cerevisiae (Fn F4-5-His6) (human, UniProt P02751 182-276); assay: SPR (Biacore), Fn F4-5 on CM5 chip, concentration of ligand at half maximum binding
T5 construct: range 182-276; also called Fn F4-5 doublet
Experimental: as §2

[11] = biological target: B6; assay: SPR (Biacore), HGFA F immobilized on CM5 chip
Experimental: as §2

[12] = biological target: B4; assay: SPR (Biacore), HGFA F immobilized on CM5 chip
Experimental: as §2

[13] = biological target: T6, factor XII purified from human plasma (human, UniProt P00748 20-615); assay: ELISA, factor XII immobilized, β2GPI concentration series
T6 construct: mature; also called FXII
T6 sequence (looked up): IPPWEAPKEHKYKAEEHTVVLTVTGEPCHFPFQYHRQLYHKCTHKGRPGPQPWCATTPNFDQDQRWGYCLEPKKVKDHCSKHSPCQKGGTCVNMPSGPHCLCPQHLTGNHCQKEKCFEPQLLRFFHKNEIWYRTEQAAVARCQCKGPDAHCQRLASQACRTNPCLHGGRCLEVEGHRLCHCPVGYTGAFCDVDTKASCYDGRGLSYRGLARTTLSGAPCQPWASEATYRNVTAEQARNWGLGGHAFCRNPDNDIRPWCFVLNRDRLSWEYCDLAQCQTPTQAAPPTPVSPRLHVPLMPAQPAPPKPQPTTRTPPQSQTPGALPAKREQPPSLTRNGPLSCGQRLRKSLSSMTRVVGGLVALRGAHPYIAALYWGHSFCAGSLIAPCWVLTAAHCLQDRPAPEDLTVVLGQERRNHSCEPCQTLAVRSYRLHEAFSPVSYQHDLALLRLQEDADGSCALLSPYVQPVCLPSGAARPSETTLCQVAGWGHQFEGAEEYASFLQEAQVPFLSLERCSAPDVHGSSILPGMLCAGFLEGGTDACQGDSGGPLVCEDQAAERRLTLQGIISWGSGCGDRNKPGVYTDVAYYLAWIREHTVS
Experimental: (§3) Binding of β₂GPI was assessed with monoclonal antibody 2B2¹³.
(§4) C. […] D. Western blot incubated with anti-human factor XII antibody. […] Eluted fractions are analyzed on Western blot after SDS-PA electrophoresis. […] The molecular mass of factor XII is 80 kDa. […] Anti-β₂GPI auto-antibodies were purified from plasma of patients with the auto-immune disease Anti-phospholipid syndrome. […] Signals are corrected for background fluorescence of CL, DXS, ThT and buffer.

[14] = biological target: B1; assay: ELISA, tPA immobilized, β2GPI concentration series
Experimental: as §3, §4

[15] = biological target: B1; assay: ELISA, tPA coated, β2GPI concentration series, antibody 2B2
Experimental: as §3, §4

[16] = biological target: T6, factor XII purified from human plasma; assay: ELISA, factor XII coated, β2GPI concentration series, antibody 2B2
Experimental: as §3, §4

T5 sequence (P02751 other isoform, or with tags, fused parts or gaps limits assumed): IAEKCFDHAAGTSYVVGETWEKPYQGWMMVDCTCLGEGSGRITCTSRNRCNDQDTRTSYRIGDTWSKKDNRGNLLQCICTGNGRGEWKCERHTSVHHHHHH
T4 sequence (P02769 25-607 limits assumed): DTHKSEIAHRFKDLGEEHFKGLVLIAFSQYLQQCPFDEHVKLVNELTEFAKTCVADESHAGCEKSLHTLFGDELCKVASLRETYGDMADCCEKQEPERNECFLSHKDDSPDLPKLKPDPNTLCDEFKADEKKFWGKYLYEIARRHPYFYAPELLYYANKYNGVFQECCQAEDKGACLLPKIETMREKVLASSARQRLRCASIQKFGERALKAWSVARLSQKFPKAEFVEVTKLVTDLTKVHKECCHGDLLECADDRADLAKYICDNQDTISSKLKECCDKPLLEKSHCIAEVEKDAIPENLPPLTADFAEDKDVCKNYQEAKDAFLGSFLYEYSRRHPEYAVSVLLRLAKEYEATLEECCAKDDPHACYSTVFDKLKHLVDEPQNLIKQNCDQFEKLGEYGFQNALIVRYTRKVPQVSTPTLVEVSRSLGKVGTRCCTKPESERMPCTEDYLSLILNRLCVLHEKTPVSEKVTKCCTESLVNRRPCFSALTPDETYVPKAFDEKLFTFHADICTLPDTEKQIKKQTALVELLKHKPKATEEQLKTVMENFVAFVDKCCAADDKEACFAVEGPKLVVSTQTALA

Binder: B1
Bmax (OD450 nm) [1]: 0.533 OD450 nm | Bmax (OD450 nm) [2]: 3.62 OD450 nm | Bmax (OD450 nm) [3]: 0.756 OD450 nm | Bmax (OD450 nm) [4]: 1.23 OD450 nm | binding result [5]: binds

Binder: B2
Kd [6]: 216 nM | tPA activation, Max. Activation (%) [7]: 0%

binding result [8]: no binding (tested: 0-300 nM) | binding result [9]: no binding (tested: 0-800 nM)
B3: chemically synthesized F domain of tPA (tPA F) (other, human)
chain: VICRDEKTQMIYQQHQSWLRPVLRSNRVEYCWCNSGRAQCHSVK
modifications: cysteine pairing not given here; also: added C-terminal Lys acetylated or biotinylated
notes: domain: F domain; Immobilized on the second Biacore chip; also called tPA F domain

Binder: B4
EC50 [10]: 800 nM

binding result [11]: no binding (tested: 0-300 nM) | binding result [12]: no binding (tested: 0-800 nM)
B5: chemically synthesized F domain of hepatocyte growth factor activator (HGFA F) (other)
chain: EKCFDETRYEYLEGGDRWARVRQGHVEQCECFGGRTWCEGTK
modifications: added carboxy-terminal lysine residue is acetylated
notes: domain: F domain; Made by native chemical ligation of two peptides; also called HGFA F domain

Binder: B6
Kd [13]: 0.9 µg/mL | Kd [14]: 2.3 µg/mL | EC50 [10]: 165 nM | Kd [15]: 51 nM | Kd [16]: 20 nM
